experiment: soluble fraction after stress (log2 fold change); higher = more stays soluble; pooled small domains, quantitative proteomics; conditions: stress: pH 4
Summary of the method: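 Custom libraries of small protein domains were pooled and measured with high-throughput quantitative proteomics after pH 4 stress. The read-out is the fold change in the amount of each domain that stays soluble after the acid stress, taken as a measure of aggregation propensity. Fold changes are on a log2 scale, and higher values mean more of the domain stayed soluble.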

Row | Sequence | soluble fraction (log2)
1 | HMKTERTVRVQDQHLHYTLEEKPIKNVNLRIRPDGSVYVSAPFGTSRTLIDDFVASKSKQILAIQQAQSAM | 0.22
2 | HMKTGIGIVEANGGLRLRSQASTSSDVLSTAHNGDNVVVIRQVGNWYLVNYNLKIGYMHSDYITFKE | -1.3
3 | HMKTGNIIAVSLVWKGKYYMIRMFFPSAARPSRADVQTEIEKVYPGSKLSSFSVSDYEPGQPLLQV | -0.146
4 | HMKTGTTGLIGEIGVVKKALTPEGKVFVHGELWRAVSKTASPEGTLVQVIKINNLVLEVEKV | 0.0324
5 | HMKTILEKDQRLAKYISYLIKRKRLSPEQVIEHLKTDDHGYEKYPKSINTIYAAIDKGLIPSVTRQDM | ≥ 0.43
6 | HMKTKMTPELTTVIEAQIQKEWSPEQISGWLKKTHPVSVSHQRIYQHIQADRQQGGTLHQHLRQAK | -0.2
7 | HMKTKTFSPGEIVKIQTRDKSWQGTILESHDPEIILLKLTTGYNIGIRENEIINAKVIEKSKKDVKDAE | 0.176
8 | HMKTKTIMSTGAREDLVKMINEYYYSKNYIITEDNRIYNTKTEKFMDDLSVKFYRGRWKVIRN | 0.0289
9 | HMKTLDATQRLKLNGEGIIVFNFGKYVDQPVVEIFKKERGYFAWMMSKDFSQQVKNIITKIHNEEILGK | -0.344
10 | HMKTLKHYFASIAHEFGREEAELMLLSVFKTPFEQRLMLFMKDPALTEAQVQQLDNLVRQRKQGVPLPYIL | -0.287
11 | HMKTLPADPTVKNFSYTVVDGEIYYRENSIMTQIELSDNAKGRVAGMVELRQIVNELIDQQLND | -1.52
12 | HMKTMEQSYIGRKIILDENVEDSALIKFEGIYWTFKSVSGPLKKGTEVEIIGIEGNKILIKNK | 0.181
13 | HMKTPIEFGSVYNDPVRYVIGMSIKSAESINQAIYDMMKIFGDENNMNKFDSLPDEQAVLDMVNSF | -0.208
14 | HMKTRIQDLRKELGVTQSELADAVDVTRQTIISLEGGRYKASLVLAHKLAQFFHVTIEELFIFD | -0.918
15 | HMKTRNISGNHEAVWQAVRSRTQAGHPTTRAVIMDDLKAQGLNTQKFSRWLKKLVDDGSVYMDGDTIIMGK | -0.12
16 | HMKTRTVVLKSAGGNKIAVIKIIKEITGLGLVEAKAVADNGGNIKENIPAEEAEAIKTQLTEAGAEVEL | -0.242
17 | HMKTRYPNVYQDEKGKFFYQIFIGTDTNGRKKLKKGRRDALGHPFSSAYQASKEAKRVQALYANVS | -0.0451
18 | HMKTSTGSAMYLTLDLAEKYAGQAFTLVHKKADGTFEYLYATADVDGKVKFGPVYELSPFMLVKGQL | -0.674
19 | HMKTSVGSKMMVMANNLSIRKSANLLSEKLADLSKGDMVEYISSTNGWNKVRYNGYVGYVSSYYLKDTGEV | 0.375
20 | HMKTTKDSVFEYIQKELMTNEEYKQGINTNVIAQHFGLQRSNISTILNELVKEDRLEKTNTRPVLYFLPQ | 0.184
21 | HMKTTKRERARAKLIQLLENEDRPAKEIYAGLGDIGVGSRTVEKVKKELQVTTYRSGGSWYWSLPKP | -0.147
22 | HMKTVKPSQIPYSEFLKLVETDKINDVSMVGRNIIGHLDDGSKFKTYTPPNDPTLIEKLSSHNIVINAAPE | 0.134
23 | HMKTVLDSLLRILDSKELDIVVLRHIVGLTLTEIAKEKDMKKGTVFWMYNRAVKKLRLESERMGL | -0.977
24 | HMKTVPNVEGEKDGTAQSAIESAGLKVGKVTYQYDDNTSKGLVISQSVKGGEKVKPNTAIDLVVSNGPK | 0.22
25 | HMKTYSEAQLKIALESLIENGKKQGYLTFQEINEILPDGIINTQDLKVIISILKETGIVVAKEKPEINIDV | 0.273

Row | Sequence | soluble fraction (log2)
26 | HMKVEFTPAYLKKFKANKNAWKFYEAQTNTYKKQSAWYVISAKQEETRLRRLDLLIYDSENGIHIKPLRR | 0.211
27 | HMKVFTEDEMLEKIKEYLSTNSYINRRVMETQFGLRQNIALKWLKHFTEIGVLRKEGERNSPIYFLNN | 0.154
28 | HMKVKIFNGMKLVTNSTGLTVDGKPAALDESNADAKTYSQGLYVFIVYQSGKIAVMQDGKFLGYA | 0.301
29 | HMKVLNVLESEIVRLFKQGQQKDNIRDNIYKTHGQHYNNKKSFNVVFGRKWNSLLEQGFLES | 0.241
30 | HMKVRDTQYIIEAAISKNVIRKSKNIYYYGTDIIGRSLEDAIASLNDKKNQDIKMTILQEIES | 0.0993
31 | HMKVSKNKIVKGMGFHHVALKAVDFDASFKFYTEGLGMKFYTSWGEGNGKIAMLDLGDGGILELFA | 0.22
32 | HMKVTGITDDILQRLKQQKGYLMLSDKSSPDEIYAAFGVSKKVFKQAIGTLFKQRQIIIEEQGIRLAN | 0.201
33 | HMKVTQDIIFKRNGEEIKSKVLEITPDLIIYIDYSRADNIAREINISEVNMIIYKNGTSEIFSRPEE | -1.15
34 | HMKVTTGIDGLIGEEGVALSDFSGKGKIMVHGEIWNAEFSGEVKKGEVLLVEKANGMTLITRKKN | -0.401
35 | HMKYKWLAGQLRRELLENGGKKGYKLPTELELARRYQLSRQTVRRALQLLEEEGLILRRQGSGAYATGKPP | 0.0629
36 | HMKYLREEDYLPIGSIIRLDDRNFRVDHVNFMFKSVSLQDMDLTNSGQPIFRSESLPHIRELYEQQQNELV | -1.09
37 | HMKYYIYQGLGDSGELTKIAEVTDVKTYTATGLEANTKYRFAVSAYNGLRESSKSNIITVTT | -0.325
38 | HMLADIGGRIADLRREVGLTQGELAEKADISVVHLSNIELGKKTPGLSTLIRIAEALDVATDWILQA | -1.13
39 | HMLAFDKDDSGAVAEIILVLGRYWMDFSHKKYPAAEGVALRHKGLSHIFTVLRPYLSTPASELIGERLRR | 0.22
40 | HMLAGVDTLADRELEVFQMLGRGKSTKEIAQVLNLGESTVETYRARIKEKLQLRSAAELYLRAGQWVRDHG | -0.426
41 | HMLAIKKGGIFAILGPNGSGKSTFSKVLAGHPAYTVVDGDIFFKGLSILDLEPEERSHLGIFLAFQ | -0.151
42 | HMLAKRYLVYGSGSLNSAYPDTKNIAYGIDSGKGFFLVGILTENEASKLKLKGYYVIEDFPLDFH | -0.921
43 | HMLAPLAEMRGDTLDRLEKAVLELFSSRDFHEVSLQDVARRANVSLQTIYKYFGSKEALVYTMLDTLLGR | -0.87
44 | HMLAQVSDEGPIRAMVEAVMARSTQQLEDYKNGKVKLRQYFFGEVMKAAKGKANPTVINKLLDEMLPETL | 0.0418
45 | HMLAQYPGQVFSKEQIYNQVWKEPYYGVEDNVMSLIRRIRKKIEPDPSRPIYILTVWGIGYKFNN | 0.0406
46 | HMLARFSGIALNTWTQADVERTFGPPMLVERVARFDGDIWTYRFMDDYEPRMAHIHIDRAGTVRQLVF | -1.74
47 | HMLAVEKIEFVGNERIAAADLESALSALYDRPMTTISDDEIAKLLSGFSLIETFTSQAEPPHTLRVNIRE | -0.452
48 | HMLDEKFLSELMLALLRNHRRGLRAEVLLHKVRSNMELDGYKSLLVGVGRMEMWELAREIIDFVKAEG | -2.07
49 | HMLDGFEVGMTVMRKPGTETGFTGWPPFADKDEFPVIERIDTSDSTLLLRFNDTSWWINASLVEPSDV | -0.729
50 | HMLDIPEVGQAVQVRGRLGTVFSVAPYDGREGRLHLVTVDYLDDARPPENDEILWEIESGARILG | -0.763

Row | Sequence | soluble fraction (log2)
51 | HMLDLNEVEFYAIENQLKENLKIDSKRFYELVPLIKGYQEDDIIQVLRWLIDNNRIIRHKDESLTWHS | -1.02
52 | HMLDLSEEEQKIVSILEKQGNLQINSLVVEADIPVHKINAILFELEMKGVVRVLALSLIHISEP | -0.628
53 | HMLDPVLQREKDESFTDYHIRLFKNKDTYHIDTKTIATLLNKDQGTNYDESKWRKDFKQYERWNDYIMSKN | -0.155
54 | HMLDPYNVLGVPRDAGMDEIKKAYRKLSRTYHPDANIDNPNKAQAEEKFKQIQEAYQQIVKERTE | -0.152
55 | HMLDQAVPVFETPKYAVSYIQNRLVEMKAASPEEAASRFYESISESERRGLFEALLIKEAEES | -0.821
56 | HMLDQGTQSRYQIMDGVRALITGDWSSHGAGLVRELSQEVARTSGLTATSERTFFVPFSALS | -0.111
57 | HMLDSDARRRGLIEYLSLNGYATMRQLAGEFDVSINTIQRDITYLARYYPLETAYGRYGGGVYFEQNWQ | -1.04
58 | HMLDSGNPILPYKLSLLANVDIRTVRNAISAGELVAFKSEFDGEVYVENGSARRWLHGRRGFKPTLK | -0.772
59 | HMLDSNILTLIKELKIRHHFTATQTHQLEKVIQQAHALGLDNSEIRSLANSSPSAKSLINDLNQKLEPLRL | ≥ 0.43
60 | HMLDTELEANLRSQRDQKLVEELDPIVTNPLRWAELTSDKQTEWTQYRTDLLNVPQQSGFPTNVTWPEKP | -0.401
61 | HMLDVFSAEQVADVLSVSKRNLETWANNGKLIPDFIHGEVALYSKKQLEQFEQFQRFFNSSWDAERLIQP | -1.24
62 | HMLDVGDQLVKKLKDNDSLDFHFVNSKEANKGLKDGDYYMVITIPSNFSKNATTLLDKNPKKMVLNYTTNP | 0.13
63 | HMLEAKQIQDNWESLIKLIEDNFTGERKENLLKMYTHFQDRMMFAPASSKEHFHNAFPGGYVEHVL | -0.942
64 | HMLEDIDNSIKKEIILEHYDKMLEFHGDYGAIIFRKLLHAYSKGYTGANEFRDLVNQISDKNIMRDLIESF | -1.17
65 | HMLEEIIDVKRFLVENVRGVSEKTALAILSEFGDKTMDVLRNSPNELYRIKGMSGKRIEVIKDAIANATAS | -1.33
66 | HMLEINTIIGNNLKKIRQEKKLTLDELAGITGVSKGMLSQIEKGTTNPTINTIWKISNGLNVPYTYLLEDD | -0.0827
67 | HMLENIVFTNKFKNKRLDVLLVDMKLVSSRQKAVSLIMRGNVFVEEERADKPGKIIKLNQTISLKK | ≥ 0.43
68 | HMLERPLKLKSHYVSAINEKVAVQFQAGEERKSIMGTLTEVNQDTIVIDDRGSVTEIPFKSIIRAKTVF | -0.163
69 | HMLESPVEAIIRQIKQLITNGKLKPGDRLPAERLLAENFGVGRGYVREAIMKLEFFGLLKTSPQSGTYVAG | -0.257
70 | HMLETIDIFKVTGGEPFLSKDFLEILDLAIEKDLAKNITLMITTNASKFVKKILDKFIHFKRVEFTVS | -1.05
71 | HMLFGKKYLGKVPNDASGRISLWNDIVKHHQELQNIRAIENFTSDNVTVAQGDTKKAVVVTDYVT | -0.152
72 | HMLFQGDTPAENIILEILSKNGTTASDSIIKQSGLSVSDFNQAATMLEIKGLISNNGGNIWSL | -0.254
73 | HMLFVKLSDAQRSMFGAKLARDARIQSEYAQKLPSENYEVFGKALADMLLDETHFKTFYPLLVEYGYTQPK | -0.649
74 | HMLGDIYISIPRAKLQAEEYGHSFKRELAFLAVHGFYHLLGYDHQTKEEEEVMFGKQEEVLAEFDIKR | -0.245
75 | HMLGKNEAKEYKVAYGDIGKMPALIMGLVPLPKPPVVDERLRTLYVTATPEQHREIEAIMNRI | -0.306

Reference: the domain aggregation screens of Martell et al. (2025)
